A short description of this series: soluble on expression in E. coli; label from the status in PepcDB or PDB records.
Regarding “MSLKSAKELLFLALGGSGEIGMNVNLYCCDGKWLMVDLGMTFADPYYPGIDLVFADLEFIEERLDDLVGIVLTHAHEDHIGAVPYFAQDLGVPLYATPFTAKLVHEKLLEAGIEKEVELNVIDHLDPFQLGPFGLRYIPLAHSIAEGNALLIDTPHGRIFHTGDWKLDDEPRIGTPATEEELTAIGDEGVLALVCDSTNVFNPNPSGSEGAVRAGLLEAVAAQKGRRVVVTTFASNVARLQTLGEVAEATGRRVCVAGRSLDRIIRVAQSCGYLKNFPETVHMDDAMDLPRGELLVLATGGQGEPRAALARIAADQHPVKLEKGDAVLFSTRQIPGNELAIGRVQNALVEKGVRIVTDRQSMIHVSGHPGRPELMALYEWLRPEILVPVHGEIRHMAEQAQLGLDEGIPKAIVQKNGDLIRLAPNGPKKLSEEGHHHHHH”, the “soluble on expression in E. coli” value was “soluble”. Consider DCYCRIPACIAGEAAYGTCIYQGALWAFCC, for which the “soluble on expression in E. coli” value is given as “soluble”. The result for “MAMKVKEVANLVGISVRTLHHYDEIGLLTPDETTESGYRLYSNENLEMLQQILFFKELGFPLKKIKEIIMSPSFDRKEALQLHKKMLLEKRARLDKVIATIDKTIQHTKGEIEMTNKEKFKGFDFSHNPYEEEARERWGDAAVDKANEYAKGMSKEKQEEFNAIYRNLAALRHGAPDSKEAQEAIKVWYDYLQNFSHYSLDAFKGLGQMYVADERFTKNIDKFGEGLAQFMCDAMEVYADRNK” reads “not soluble”; that for “MAARQQLALLSVSEKAGLVEFARSLNALGLGLIASGGTATALRDAGLPVRDVSDLTGFPEMLGGRVKTLHPAVHAGILARNIPEDNADMNKQDFSLVRVVVCNLYPFVKTVSSPGVTVPEAVEKIDIGGVALLRAAAKNHARVTVVCDPADYSSVAKEMAASKDKDTSVETRRHLALKAFTHTAQYDAAISDYFRKEYSKGVSQLPLRYGMNPHQSPAQLYTTRPKLPLTVVNGSPGFINLCDALNAWQLVKELKQALGIPAAASFKHVSPAGAAVGIPLSEEEAQVCMVHDLHKTLTPLASAYARSRGADRMSSFGDFIALSDICDVPTAKIISREVSDGVVAPGYEEEALKILSKKKNGGYCVLQMDPNYEPDDNEIRTLYGLQLMQKRNNAVIDRSLFKNIVTKNKTLPESAVRDLIVASIAVKYTQSNSVCYAKDGQVIGIGAGQQSRIHCTRLAGDKANSWWLRHHPRVLSMKFKAGVKRAEVSNAIDQYVTGTIGEDEDLVKWQAMFEEVPAQLTEAEKKQWIAKLTAVSLSSDAFFPFRDNVDRAKRIGVQFIVAPSGSAADEVVIEACNELGITLIHTNLRLFHH”, “soluble”. The result for “MSLNFHDVRFPPSLSFGSLGGPQRRTDVVTLANGYEERNTPWAHSRRVYDAGLGMRSIDDVQALTGFFEARMGQMYGFRWKDWADFKSCASSVGVTFEDQSLGFGDGVRTDYQLVKTYSSGGHSYVRPITKPVAGTVRVGIEQDALQEGSDYEVDLSTGIIRFAHAPDPEMQVSAGFEFDVPVRFDTDRILVSVASFQAGQVPDVPVIEVRVEGHHHHHH” reads “soluble”; that for “MSLGQDIGFYLGRIDSEMDSWVADPDEALKASNKLFFLNPFQANKVGIKGKANSNPNTQLSGDTGEGKSFAAKLIHLYSSFLKVKTLYIDPKLEMEANYKRVLKEFEEQDVYPEIQKYIRSLSFATLDSTKNENLGVLDPLVFLPKKRAKGLIVSMIGELIKYDSHISFKTELSHQLSLFADRRARGEQVGTLTVLKELYNHSERQDVRDTAESLIEDIKDSILGLVFSDGKNQAVDLNARNVILGVSGLDLPQDDSIVHSDLTLQQRYSLVIMYALGEFVIQFAERDYKEHTLEIVDEAWFLETSAVGRGIFNRMKRLNRRFNNFLYFVSQEIDDSNRGKDEKTAFGSYFCFRNDDSTKVDSILRRLGVQPTEESRKWFDNLSLGQCLYRDSANRVERVTFDGLFPEVKELFKTVENDSLEGHHHHHH”, “soluble”.

For the sequence “MGSDKIHHHHHHMEANDLLTLGLGLTAPWRVVDQSLDLSKQPSELRLEVEAARGERYPCPACGALCKAHDFAEFSWRHLNFFQHHCLIKARVPRVRCPEHGLKRVNVPWARPGSGFTLLFEQAVMLLAREMPVNAVARYVGVTDKRIWRVVTHYVLKGMGKLDLSRLCGIGLDETATKRGHHYVTIFVDMDRESRPVVFATPGKGKECLKTFAAYLKGRQGNPENVVEVVCDMSPAFLSAAEATFRNAAVTVDWFHVVQIFTKALDEVRRLEAREVILPKAARWAVLKGLETWRIEEQVAALKELEERGLATATAFRVKELLRWVRKADTRQGARWRATRFFEFARELAGDSVLLAPVRKALNTFEDHLPRILRRWDSLLSNARLEGLNGLFQAARSRARGYRNVTTFITMIYLIGAPITQLLEA”, the “soluble on expression in E. coli” value is “not soluble”. On to “MIKLSSITAHILDIWHRRNSRSYIAHLRSLGIRIGDGCIFRDPLTTRIDVSRPALVSIGSNVDMNTYFQILTHDWASFVFRNKYHDFVNSSGRVEIGSNIYIGTNVIVLRGVTIGDNCVIGAGSVVTHDIPANSVAVGAPCRVVCSLEHHHHHH”, for which the “soluble on expression in E. coli” value is on record as “soluble”. The result for “MKKEFSAGGVLFKDGEVLLIKTPSNVWSFPKGNIEPGEKPEETAVREVWEETGVKGEILDYIGEIHYWYTLKGERIFKTVKYYLMKYKEGEPRPSWEVKDAKFFPIKEAKKLLKYKGDKEIFEKALKLKEKFKL” reads “soluble”; that for “MGSDKIHHHHHHMLKIYVVDNGGQWTHREWRVLRELGVDTKIVPNDIDSSELDGLDGLVLSGGAPNIDEELDKLGSVGKYIDDHNYPILGICVGAQFIALHFGASVVKAKHPEFGKTKVSVMHSENIFGGLPSEITVWENHNDEIINLPDDFTLAASSATCQVQGFYHKTRPIYATQFHPEVEHTQYGRDIFRNFIGICASYREIQKENFQH”, “soluble”; that for “MAHHHHHHMSQQQWTPDQRRQQIAEMLRNKGVICRDFLFTGRCSRSPTCPYMHVANGETRPVPWSVCTFFTQGKCLRDGCSFFHGTQAQLEELHASGAPVYRPQDYMKIAVPPAEYLNADGSIATHLSIAAVPMTPALHVVHGPTVSHENAVNSFQPVLVMQPNSQAIAPTMFASQGRTAHSTPSHFAFYANAPITSQMPTHSAATVLQPTLHTVQPTTFYQAANALLAQPQQHFAPVPQLNTPQQHQLTQQALGSRVYFHIQPH”, “not soluble”. For “GPGSNYTFSMRATLDDPDVQNGITQGDRQQIQDAVNAASSWLEKNREATKEEYMEQTKLIEGIAHPILSEFYKKRVMEAPPSAGPKDGAPSDEVPHAEDVD”, the “soluble on expression in E. coli” value was “soluble”. The result for “MSLTYLIKVLELFSGVGSFSISLNTLGIEHEIVGFSETRKTATQLFCKLHNKKESENLGDVRNVSAKDLDVDLLVFGSPCQSFTRAGKQGGGLKGSDTRSALMWEAVRIMEECKPKWIVWENVPDAISRKNMPNFQNYMDELDSLNYNTYYKVLNAHELGSAQKRKRLFSISIRKDIDNGKFEFLDLTREPKHLETYLENNDEGHHHHHH” reads “soluble”; that for “PTHIAIGIYFNPEIAPAPFISLIETNQCALAVRKYANEVGIPTVRDVKLARKLYKTHTKYSFVDFEHLDEVLRLIVWLEQVENTHLEHHHHHH”, “soluble”; that for “MDPKKADIIRLEALPQDLLGGIVAKVGATTAEDFHNCILVCKELGASANDKHVFKTLNLALLVKKPLSGTQTPSYYENMS”, “soluble”. The result for “MSETIEIDELVFSVKRSTRRRTVGVTVERDKSLVAHLPQGVALDVATRLIASKLLWVHQKLAEHGETARDDVFRIPEFVDGEGFHLLGKHYRLKLVDVPKNVTGVPSVRFEGDRILLRREQAASGGKRIEEYYTRAAHPYLNETVQRWKRIVGVEPGRFVQVMDLGYRWGSCSEDGTLNFHWRTMQLPPRIIEYVVVHELVHIKVPNHSEKFWKMIGSVMPDYESRKAWLKQKGGEL” reads “soluble”; that for “MGHHKAMPYADVAAFIIELRKREAVAATALEFTILTAARSGETLGAKWHEIDWKDKIWTVPAERMKAAREHRVPLSSRTITILKKLAEFGSDENSFVFPGQKPGKPLSVMAMDMVLRRMEVDVTVHGFRSSFRDWCGEVSNFPRDVAEAALAHVVGDKTERAYRRGDALEKRRKLMAAWEKFCIAEIKKNPLEHHHHHH”, “not soluble”; that for “SAAPPGEYFSVGSQVSCRTCQEQRLQGEVVAFDYQSKMLALKCPSSSGKPNHADILLINLQYVSEVEIINDRTETPRPLASLNVSKLASKARTEKEEKLSQAYAISAGVSLEGQQLFQTIHKTIKDCKWQEKNIVVMEEVVITPPYQVENCKGKEGSALSHVRKIVEKHFRDVESQKILQRSQAQQPQKEAALSS”, “soluble”.

The record behind these values is the DeepSol protein solubility set.
